# Source: patent US20250163169
# T1: 43-mer covering the stalk region of CD95L (residue 103 to residue 145)
# T1 chain: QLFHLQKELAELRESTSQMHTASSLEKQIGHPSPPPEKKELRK
# T2: Recombinant Ig-CD95L
# T2 chain: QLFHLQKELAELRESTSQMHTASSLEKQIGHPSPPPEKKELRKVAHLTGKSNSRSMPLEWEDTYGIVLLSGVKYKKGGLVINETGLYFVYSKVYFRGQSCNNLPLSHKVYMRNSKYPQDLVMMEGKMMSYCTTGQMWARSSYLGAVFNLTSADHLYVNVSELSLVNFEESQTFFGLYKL
# B1: MMP2 (protein)
# chain: YNFFPRKPKWDKNQITYRIIGYTPDLDPETVDDAFARAFQVWSDVTPLRFSRIHDGEADIMINFGRWEHGDGYPFDGKDGLLAHAFAPGTGVGGDSHFDDDELWTLGEGQVVRVKYGNADGEYCKFPFLFNGKEYNSCTDTGRSDGFLWCSTTYNFEKDGKYGFCPHEALFTMGGNAEGQPCKFPFRFQGTSYDSCTTEGRTDGYRWCGTTEDYDRDKKYGFCPETAMSTVGGNSEGAPCVFPFTFLGNKYESCTSAGRSDGKMWCATTANYDDDRKWGFCPDQGYSLFLVAAHEFGHAMGLEHSQDPGALMAPIYTYTKNFRLSQDDIKGIQELYGASPDIDLGTGPTPTLGPVTPEICKQDIVFDGIAQIRGEIFFFKDRFIWRTVTPRDKPMGPLLVATFWPELPEKIDAVYEAPQEEKAVFFAGNEYWIYSASTLERGYPKPLTSLGLPPDVQRVDAAFNWSKNKKTYIFAGDKFWRYNEVKKKMDPGFPKLIADAWNAIPDNLDAVVDLQGGGHSYFFKGAYYLKLENQSLKSVKFGSIKSDWLGC
# B2: ADAM10 (protein)
# chain: TTSAEKNTCQLYIQTDHLFFKYYGTREAVIAQISSHVKAIDTIYQTTDFSGIRNISFMVKRIRINTTADEKDPTNPFRFPNIGVEKFLELNSEQNHDDYCLAYVFTDRDFDDGVLGLAWVGAPSGSSGGICEKSKLYSDGKKKSLNTGIITVQNYGSHVPPKVSHITFAHEVGHNFGSPHDSGTECTPGESKNLGQKENGNYIMYARATSGDKLNNNKFSLCSIRNISQVLEKKRNNCFVESGQPICGNGMVEQGEECDCGYSDQCKDECCFDANQPEGRKCKLKPGKQCSPSQGPCCTAQCAFKSKSEKCRDDSDCAREGICNGFTALCPASDPKPNFTDCNRHTQVCINGQCAGSICEKYGLEECTCASSDGKDDKELCHVCCMKKMDPSTCASTGSVQWSRHFSGRTITLQPGSPCNDFRGYCDVFMRCRLVDADGPLARLKKAIFSPELYENIAE
# B3: MMP12 (protein)
# chain: GPVWRKHYITYRINNYTPDMNREDVDYAIRKAFQVWSNVTPLKFSKINTGMADILVVFARGAHGDFHAFDGKGGILAHAFGPGSGIGGDAHFDEDEFWTTHSGGTNLFLTAVHEIGHSLGLGHSSDPKAVMFPTYKYVDINTFRLSADDIRGIQSLYGDPKENQRLPNPDNSEPALCDPNLSFDAVTTVGNKIFFFKDRFFWLKVSERPKTSVNLISSLWPTLPSGIEAAYEIEARNQVFLFKDDKYWLISNLRPEPNYPKSIHSFGFPNFVKKIDAAVFNPRFYRTYFFVDNQYWRYDERRQMMDPGYPKLITKNFQGIGPKIDAVFYSKNKYYYFFQGSNQFEYDFLLQRITKTLKSNSWFGC
# B4: MMP7 (protein)
# chain: YSLFPNSPKWTSKVVTYRIVSYTRDLPHITVDRLVSKALNMWGKEIPLHFRKVVWGTADIMIGFARGAHGDSYPFDGPGNTLAHAFAPGTGLGGDAHFDEDERWTDGSSLGINFLYAATHELGHSLGMGHSSDPNAVMYPTYGNGDPQNFKLSQDDIKGIQKLYGKRSNSRKK
# Tests used:
# [1] = molecular target: T1, 43-mer covering the stalk region of …
# [2] = molecular target: T2, Recombinant Ig-CD95L
Protein,percentage of degradation of the 43-mer (LC-MS/MS) [1],cleavage of Ig-CD95L (western blotting) [2]
B1,more of 20% of cleavage,"Using this Ig-CD95L, we showed that MMP2 and MMP3 can cleave CD95L"
B2,more of 20% of cleavage,
B3,more of 20% of cleavage,
B4,more of 20% of cleavage,
